pKd: −log10 of the molar value.
Assays:
Test in all cases: EMSA
[1] = molecular target: HAKAI;WTAP;VIRMA;ZC3H13 (1106-1668) (Homo sapiens;Homo sapiens;Homo sapiens;Homo sapiens) (UniProt Q75N03+Q15007+Q69YN4+Q5T200); conditions: HWVZ; EMSA: 5 nM FAM-RNA, 20 mM HEPES pH 7.5, 100 mM KCl, 10% glycerol, 1 mM DTT, 25 C, 20 min; 8% native PAGE in 1x TBE at 4 C; Kd from loss of free RNA, Hill fit …
[2] = molecular target: WTAP;VIRMA;ZC3H13 (1106-1668) (Homo sapiens;Homo sapiens;Homo sapiens) (UniProt Q15007+Q69YN4+Q5T200); conditions: WVZ (no HAKAI); EMSA: 5 nM FAM-RNA, 20 mM HEPES pH 7.5, 100 mM KCl, 10% glycerol, 1 mM DTT, 25 C, 20 min; 8% native PAGE in 1x TBE at 4 C; Kd from loss of free RNA, Hill fit …
WTAP;VIRMA;ZC3H13 (1106-1668) (Homo sapiens;Homo sapiens;Homo sapiens), sequence (Q15007 whole entry, chain 1 of 3): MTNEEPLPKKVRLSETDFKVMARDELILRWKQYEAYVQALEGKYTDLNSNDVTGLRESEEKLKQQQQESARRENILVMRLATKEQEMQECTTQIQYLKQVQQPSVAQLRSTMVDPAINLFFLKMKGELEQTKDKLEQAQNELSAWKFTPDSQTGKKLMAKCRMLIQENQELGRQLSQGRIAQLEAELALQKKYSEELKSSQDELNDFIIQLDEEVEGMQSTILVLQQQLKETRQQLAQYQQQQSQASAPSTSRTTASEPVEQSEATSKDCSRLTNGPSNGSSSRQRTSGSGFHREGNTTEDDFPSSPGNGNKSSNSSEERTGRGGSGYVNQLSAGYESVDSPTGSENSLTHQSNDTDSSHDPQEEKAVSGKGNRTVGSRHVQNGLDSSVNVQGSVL
WTAP;VIRMA;ZC3H13 (1106-1668) (Homo sapiens;Homo sapiens;Homo sapiens), sequence (Q69YN4 whole entry, chain 2 of 3): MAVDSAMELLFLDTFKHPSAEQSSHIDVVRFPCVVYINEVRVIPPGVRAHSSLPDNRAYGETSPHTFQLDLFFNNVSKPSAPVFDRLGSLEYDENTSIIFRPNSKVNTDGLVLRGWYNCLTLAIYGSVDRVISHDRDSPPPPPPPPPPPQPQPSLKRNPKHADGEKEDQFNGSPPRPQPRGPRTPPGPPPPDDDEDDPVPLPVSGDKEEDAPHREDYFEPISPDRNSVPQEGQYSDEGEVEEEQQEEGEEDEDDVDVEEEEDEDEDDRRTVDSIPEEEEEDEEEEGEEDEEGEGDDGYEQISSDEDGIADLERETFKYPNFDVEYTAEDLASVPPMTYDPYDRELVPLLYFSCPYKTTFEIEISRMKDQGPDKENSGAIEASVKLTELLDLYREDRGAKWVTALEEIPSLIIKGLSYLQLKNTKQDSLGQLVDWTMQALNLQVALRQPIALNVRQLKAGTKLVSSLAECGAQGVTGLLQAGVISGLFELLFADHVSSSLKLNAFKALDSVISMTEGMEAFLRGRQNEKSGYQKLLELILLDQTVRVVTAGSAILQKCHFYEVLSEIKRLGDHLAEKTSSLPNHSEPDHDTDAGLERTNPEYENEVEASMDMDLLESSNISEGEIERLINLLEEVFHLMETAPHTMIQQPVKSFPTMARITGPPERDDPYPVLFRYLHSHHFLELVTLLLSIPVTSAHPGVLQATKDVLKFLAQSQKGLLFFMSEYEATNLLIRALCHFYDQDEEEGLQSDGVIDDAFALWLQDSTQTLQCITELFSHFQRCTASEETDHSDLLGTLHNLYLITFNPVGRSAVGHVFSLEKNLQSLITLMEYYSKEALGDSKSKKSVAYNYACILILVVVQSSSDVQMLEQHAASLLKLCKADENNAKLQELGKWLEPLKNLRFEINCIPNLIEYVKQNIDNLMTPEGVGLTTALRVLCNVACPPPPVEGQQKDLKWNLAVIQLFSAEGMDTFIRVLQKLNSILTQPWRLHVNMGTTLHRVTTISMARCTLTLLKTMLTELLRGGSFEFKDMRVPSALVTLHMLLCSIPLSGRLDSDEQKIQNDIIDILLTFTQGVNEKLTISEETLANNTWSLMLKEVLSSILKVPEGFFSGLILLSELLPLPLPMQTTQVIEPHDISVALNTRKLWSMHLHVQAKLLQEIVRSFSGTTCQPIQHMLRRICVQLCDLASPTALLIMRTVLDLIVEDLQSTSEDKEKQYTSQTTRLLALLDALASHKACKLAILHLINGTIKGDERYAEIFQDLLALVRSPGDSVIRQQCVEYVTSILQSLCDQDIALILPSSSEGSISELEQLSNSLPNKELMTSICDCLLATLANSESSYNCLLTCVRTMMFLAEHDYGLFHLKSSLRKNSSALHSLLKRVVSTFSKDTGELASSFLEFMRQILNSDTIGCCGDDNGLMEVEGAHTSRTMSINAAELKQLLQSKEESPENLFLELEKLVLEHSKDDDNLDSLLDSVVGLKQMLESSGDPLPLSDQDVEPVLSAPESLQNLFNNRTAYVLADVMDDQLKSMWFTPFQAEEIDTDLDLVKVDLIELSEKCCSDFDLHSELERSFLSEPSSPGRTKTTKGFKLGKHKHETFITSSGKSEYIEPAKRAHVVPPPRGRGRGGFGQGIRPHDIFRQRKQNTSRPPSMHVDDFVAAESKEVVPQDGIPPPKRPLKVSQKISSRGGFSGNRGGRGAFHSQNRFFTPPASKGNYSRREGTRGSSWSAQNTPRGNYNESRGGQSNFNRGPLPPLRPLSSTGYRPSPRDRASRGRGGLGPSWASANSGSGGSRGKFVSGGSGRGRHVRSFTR
WTAP;VIRMA;ZC3H13 (1106-1668) (Homo sapiens;Homo sapiens;Homo sapiens), sequence (Q5T200 1106-1668, chain 3 of 3): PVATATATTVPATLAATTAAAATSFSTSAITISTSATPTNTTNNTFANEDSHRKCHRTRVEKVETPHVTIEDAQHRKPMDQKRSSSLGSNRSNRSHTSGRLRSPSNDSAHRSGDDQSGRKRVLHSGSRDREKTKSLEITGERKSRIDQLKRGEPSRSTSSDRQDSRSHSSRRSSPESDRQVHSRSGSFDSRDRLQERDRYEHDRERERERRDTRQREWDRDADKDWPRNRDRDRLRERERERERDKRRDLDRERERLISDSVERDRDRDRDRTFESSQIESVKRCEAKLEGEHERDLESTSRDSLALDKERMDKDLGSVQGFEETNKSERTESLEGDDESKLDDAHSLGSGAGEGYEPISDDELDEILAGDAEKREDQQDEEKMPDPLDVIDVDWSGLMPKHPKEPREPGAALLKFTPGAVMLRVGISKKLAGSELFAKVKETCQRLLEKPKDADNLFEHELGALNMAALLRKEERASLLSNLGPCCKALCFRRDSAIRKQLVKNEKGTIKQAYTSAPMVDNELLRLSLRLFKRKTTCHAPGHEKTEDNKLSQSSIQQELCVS

[3] = molecular target: HAKAI;WTAP;VIRMA (Homo sapiens;Homo sapiens;Homo sapiens) (UniProt Q75N03+Q15007+Q69YN4); conditions: HWV (no ZC3H13); EMSA: 5 nM FAM-RNA, 20 mM HEPES pH 7.5, 100 mM KCl, 10% glycerol, 1 mM DTT, 25 C, 20 min; 8% native PAGE in 1x TBE at 4 C; Kd from loss of free RNA, Hill fit …
HAKAI;WTAP;VIRMA (Homo sapiens;Homo sapiens;Homo sapiens), sequence (Q75N03 whole entry, chain 1 of 3): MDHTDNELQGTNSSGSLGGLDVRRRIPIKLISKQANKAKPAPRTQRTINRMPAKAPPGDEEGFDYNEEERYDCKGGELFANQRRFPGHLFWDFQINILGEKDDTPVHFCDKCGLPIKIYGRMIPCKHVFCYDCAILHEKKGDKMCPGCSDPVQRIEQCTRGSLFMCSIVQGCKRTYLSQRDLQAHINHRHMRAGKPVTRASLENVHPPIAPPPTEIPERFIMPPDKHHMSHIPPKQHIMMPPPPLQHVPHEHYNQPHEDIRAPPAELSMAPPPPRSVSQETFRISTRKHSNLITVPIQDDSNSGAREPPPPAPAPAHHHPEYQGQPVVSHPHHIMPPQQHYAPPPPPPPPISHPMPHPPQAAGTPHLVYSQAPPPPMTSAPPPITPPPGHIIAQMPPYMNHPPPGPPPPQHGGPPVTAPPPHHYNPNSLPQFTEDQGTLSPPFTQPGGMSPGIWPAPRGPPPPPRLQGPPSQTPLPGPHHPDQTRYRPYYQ
HAKAI;WTAP;VIRMA (Homo sapiens;Homo sapiens;Homo sapiens), sequence (Q15007 whole entry, chain 2 of 3): as the sequence (Q15007 whole entry, chain 1 of 3) above
HAKAI;WTAP;VIRMA (Homo sapiens;Homo sapiens;Homo sapiens), sequence (Q69YN4 whole entry, chain 3 of 3): as the sequence (Q69YN4 whole entry, chain 2 of 3) above

[4] = molecular target: WTAP;VIRMA (Homo sapiens;Homo sapiens) (UniProt Q15007+Q69YN4); conditions: WV; EMSA: 5 nM FAM-RNA, 20 mM HEPES pH 7.5, 100 mM KCl, 10% glycerol, 1 mM DTT, 25 C, 20 min; 8% native PAGE in 1x TBE at 4 C; Kd from loss of free RNA, Hill fit …
WTAP;VIRMA (Homo sapiens;Homo sapiens), sequence (Q15007 whole entry, chain 1 of 2): as the sequence (Q15007 whole entry, chain 1 of 3) above
WTAP;VIRMA (Homo sapiens;Homo sapiens), sequence (Q69YN4 whole entry, chain 2 of 2): as the sequence (Q69YN4 whole entry, chain 2 of 3) above

HAKAI;WTAP;VIRMA;ZC3H13 (1106-1668) (Homo sapiens;Homo sapiens;Homo sapiens;Homo sapiens), sequence (Q75N03 whole entry, chain 1 of 4): as the sequence (Q75N03 whole entry, chain 1 of 3) above
HAKAI;WTAP;VIRMA;ZC3H13 (1106-1668) (Homo sapiens;Homo sapiens;Homo sapiens;Homo sapiens), sequence (Q15007 whole entry, chain 2 of 4): as the sequence (Q15007 whole entry, chain 1 of 3) above
HAKAI;WTAP;VIRMA;ZC3H13 (1106-1668) (Homo sapiens;Homo sapiens;Homo sapiens;Homo sapiens), sequence (Q69YN4 whole entry, chain 3 of 4): as the sequence (Q69YN4 whole entry, chain 2 of 3) above
HAKAI;WTAP;VIRMA;ZC3H13 (1106-1668) (Homo sapiens;Homo sapiens;Homo sapiens;Homo sapiens), sequence (Q5T200 1106-1668, chain 4 of 4): as the sequence (Q5T200 1106-1668, chain 3 of 3) above

## GGCCCCUCCAUCGUCCACCGCAAAUGCUUCUAGGCGGACUAUGACUUAGUUGCGUUACACCCUUUCUUGACAAAACCUAACUUGCACAGAAAACA [ACTB-1 RNA]
[1]
  pKd: 6.67
[2]
  pKd: 6.59
[3]
  pKd: 6.25
[4]
  pKd: 6.08
